In US20240124553A1:

Key:
Assay in all cases: flow cytometry, transfected 293T cells
[1] = target: CHIKV E2-E1 envelope glycoproteins (strain S27), E2 mutant A41S (chikungunya virus strain S27) (UniProt Q8JUX5)
[2] = target: CHIKV E2-E1 envelope glycoproteins (strain S27), E2 mutant A89S (chikungunya virus strain S27) (UniProt Q8JUX5)
[3] = target: CHIKV E2-E1 envelope glycoproteins (strain S27), E2 mutant C105A (chikungunya virus strain S27) (UniProt Q8JUX5)
[4] = target: CHIKV E2-E1 envelope glycoproteins (strain S27), E2 mutant C125A (chikungunya virus strain S27) (UniProt Q8JUX5)
[5] = target: CHIKV E2-E1 envelope glycoproteins (strain S27), E2 mutant D117A (chikungunya virus strain S27) (UniProt Q8JUX5)
[6] = target: CHIKV E2-E1 envelope glycoproteins (strain S27), E2 mutant D132A (chikungunya virus strain S27) (UniProt Q8JUX5)
[7] = target: CHIKV E2-E1 envelope glycoproteins (strain S27), E2 mutant E109A (chikungunya virus strain S27) (UniProt Q8JUX5)
[8] = target: CHIKV E2-E1 envelope glycoproteins (strain S27), E2 mutant F100A (chikungunya virus strain S27) (UniProt Q8JUX5)
[9] = target: CHIKV E2-E1 envelope glycoproteins (strain S27), E2 mutant F129A (chikungunya virus strain S27) (UniProt Q8JUX5)
[10] = target: CHIKV E2-E1 envelope glycoproteins (strain S27), E2 mutant G114A (chikungunya virus strain S27) (UniProt Q8JUX5)
[11] = target: CHIKV E2-E1 envelope glycoproteins (strain S27), E2 mutant G44A (chikungunya virus strain S27) (UniProt Q8JUX5)
[12] = target: CHIKV E2-E1 envelope glycoproteins (strain S27), E2 mutant G82A (chikungunya virus strain S27) (UniProt Q8JUX5)
[13] = target: CHIKV E2-E1 envelope glycoproteins (strain S27), E2 mutant G98A (chikungunya virus strain S27) (UniProt Q8JUX5)
[14] = target: CHIKV E2-E1 envelope glycoproteins (strain S27), E2 mutant H131A (chikungunya virus strain S27) (UniProt Q8JUX5)
[15] = target: CHIKV E2-E1 envelope glycoproteins (strain S27), E2 mutant H62A (chikungunya virus strain S27) (UniProt Q8JUX5)
[16] = target: CHIKV E2-E1 envelope glycoproteins (strain S27), E2 mutant I121A (chikungunya virus strain S27) (UniProt Q8JUX5)
[17] = target: CHIKV E2-E1 envelope glycoproteins (strain S27), E2 mutant I48A (chikungunya virus strain S27) (UniProt Q8JUX5)
[18] = target: CHIKV E2-E1 envelope glycoproteins (strain S27), E2 mutant I54A (chikungunya virus strain S27) (UniProt Q8JUX5)
[19] = target: CHIKV E2-E1 envelope glycoproteins (strain S27), E2 mutant I93A (chikungunya virus strain S27) (UniProt Q8JUX5)
[20] = target: CHIKV E2-E1 envelope glycoproteins (strain S27), E2 mutant K107A (chikungunya virus strain S27) (UniProt Q8JUX5)
[21] = target: CHIKV E2-E1 envelope glycoproteins (strain S27), E2 mutant K66A (chikungunya virus strain S27) (UniProt Q8JUX5)
[22] = target: CHIKV E2-E1 envelope glycoproteins (strain S27), E2 mutant L111A (chikungunya virus strain S27) (UniProt Q8JUX5)
[23] = target: CHIKV E2-E1 envelope glycoproteins (strain S27), E2 mutant M97A (chikungunya virus strain S27) (UniProt Q8JUX5)
[24] = target: CHIKV E2-E1 envelope glycoproteins (strain S27), E2 mutant P106A (chikungunya virus strain S27) (UniProt Q8JUX5)
[25] = target: CHIKV E2-E1 envelope glycoproteins (strain S27), E2 mutant P128A (chikungunya virus strain S27) (UniProt Q8JUX5)
[26] = target: CHIKV E2-E1 envelope glycoproteins (strain S27), E2 mutant P75A (chikungunya virus strain S27) (UniProt Q8JUX5)
[27] = target: CHIKV E2-E1 envelope glycoproteins (strain S27), E2 mutant R104A (chikungunya virus strain S27) (UniProt Q8JUX5)
[28] = target: CHIKV E2-E1 envelope glycoproteins (strain S27), E2 mutant R38A (chikungunya virus strain S27) (UniProt Q8JUX5)
[29] = target: CHIKV E2-E1 envelope glycoproteins (strain S27), E2 mutant R68A (chikungunya virus strain S27) (UniProt Q8JUX5)
[30] = target: CHIKV E2-E1 envelope glycoproteins (strain S27), E2 mutant S118A (chikungunya virus strain S27) (UniProt Q8JUX5)
[31] = target: CHIKV E2-E1 envelope glycoproteins (strain S27), E2 mutant S124A (chikungunya virus strain S27) (UniProt Q8JUX5)
[32] = target: CHIKV E2-E1 envelope glycoproteins (strain S27), E2 mutant T116A (chikungunya virus strain S27) (UniProt Q8JUX5)
[33] = target: CHIKV E2-E1 envelope glycoproteins (strain S27), E2 mutant T94A (chikungunya virus strain S27) (UniProt Q8JUX5)

Substance	Binding Reactivity (% WT) [1]	Binding Reactivity (% WT) [2]	Binding Reactivity (% WT) [3]	Binding Reactivity (% WT) [4]	Binding Reactivity (% WT) [5]	Binding Reactivity (% WT) [6]	Binding Reactivity (% WT) [7]	Binding Reactivity (% WT) [8]	Binding Reactivity (% WT) [9]	Binding Reactivity (% WT) [10]	Binding Reactivity (% WT) [11]	Binding Reactivity (% WT) [12]	Binding Reactivity (% WT) [13]	Binding Reactivity (% WT) [14]	Binding Reactivity (% WT) [15]	Binding Reactivity (% WT) [16]	Binding Reactivity (% WT) [17]	Binding Reactivity (% WT) [18]	Binding Reactivity (% WT) [19]	Binding Reactivity (% WT) [20]	other results
CHIKV mAb C9 (antibody)	70.7 % WT	109 % WT	-0.2 % WT	0 % WT	74.4 % WT	94.4 % WT	109 % WT	34.2 % WT	6.7 % WT	67.5 % WT	72.5 % WT	90.2 % WT	102 % WT	24.4 % WT	93.1 % WT	96.7 % WT	10.7 % WT	110 % WT	10.4 % WT	95.6 % WT	Binding Reactivity (% WT) [21]: 85.7 % WT; Binding Reactivity (% WT) [22]: 23.2 % WT; Binding Reactivity (% WT) [23]: 76.3 % WT; Binding Reactivity (% WT) [24]: 88.9 % WT; Binding Reactivity (% WT) [25]: 112 % WT; Binding Reactivity (% WT) [26]: 98.5 % WT; Binding Reactivity (% WT) [27]: 91.6 % WT; Binding Reactivity (% WT) [28]: 86.3 % WT; Binding Reactivity (% WT) [29]: 64.8 % WT; Binding Reactivity (% WT) [30]: 97.4 % WT; Binding Reactivity (% WT) [31]: 116 % WT; Binding Reactivity (% WT) [32]: 98.2 % WT; Binding Reactivity (% WT) [33]: 116 % WT
CHIKV mAb IM-CKV065 (antibody)	33.8 % WT	111 % WT	-2.9 % WT	-2.9 % WT	70.9 % WT	126 % WT	82.6 % WT	15.1 % WT	-1.1 % WT	35.2 % WT	50.4 % WT	104 % WT	112 % WT	3.2 % WT	88.5 % WT	111 % WT	0.3 % WT	80.8 % WT	-0.9 % WT	95.2 % WT	Binding Reactivity (% WT) [21]: 99.6 % WT; Binding Reactivity (% WT) [22]: 6.6 % WT; Binding Reactivity (% WT) [23]: 65.7 % WT; Binding Reactivity (% WT) [24]: 98.1 % WT; Binding Reactivity (% WT) [25]: 80.3 % WT; Binding Reactivity (% WT) [26]: 84.9 % WT; Binding Reactivity (% WT) [27]: 66.9 % WT; Binding Reactivity (% WT) [28]: 133 % WT; Binding Reactivity (% WT) [29]: 88.1 % WT; Binding Reactivity (% WT) [30]: 86 % WT; Binding Reactivity (% WT) [31]: 97.3 % WT; Binding Reactivity (% WT) [32]: 103 % WT; Binding Reactivity (% WT) [33]: 102 % WT
